Test results published in the supplement of paper PMC10567573.
± gives the standard deviation.

Assay: protein stability index of a GFP-peptide fusion (GPS, HEK-293T) (PSI 1-6); higher = more stable
[1] = treatment: DMSO, c terminus: a fixed tail appended
[2] = treatment: MLN4924 1 uM, 8 h, c terminus: a fixed tail appended
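Also: 24-mer peptide tiles fused after GFP, lentivirally expressed, FACS-sorted into six equal bins by GFP/DsRed ratio, decoded by Illumina sequencing, PSI is the read-weighted mean bin number.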

PVVKALFGASAAGGLSPVTNLTVT [CDC25A]
protein stability index [1]: 2.61 ± 0.24
protein stability index [2]: 2.65 ± 0.2

VFDNAIRAALISRRHLQFWKSHLK [RHOBTB1]
protein stability index [1]: 2.06 ± 0.63
protein stability index [2]: 2.4 ± 0.29

PQLSPGSGTPQAGTPSPSRSRDSN [RTN2]
protein stability index [1]: 5.2 ± 0.14
protein stability index [2]: 5.27 ± 0.18

SDRFGRKKVYLTGFALDILFAIAN [SLC22A15]
protein stability index [1]: 2.51 ± 0.64
protein stability index [2]: 2.17 ± 0.41

EELEQEELNKKMTNIRLPNVPSSS [CHMP4C]
protein stability index [1]: 5.27 ± 0.14
protein stability index [2]: 5.29 ± 0.15

DNANILLQIDNARLAADDFRTKFE [KRT17]
protein stability index [1]: 3.27 ± 0.26
protein stability index [2]: 3.71 ± 0.28

RELDAISTNEEEKEENEAESDVKH [PRIM1]
protein stability index [1]: 5.57 ± 0.17
protein stability index [2]: 5.62 ± 0.24

PVTERQIEREHLIQLRRWQETRGE [TBC1D10A]
protein stability index [1]: 4.25 ± 0.14
protein stability index [2]: 4.33 ± 0.18

DYLIQATNETNVNIPQMADTLFER [SNAP91]
protein stability index [1]: 3.64 ± 0.29
protein stability index [2]: 3.75 ± 0.2

EMSKDANFGLRLVVQRCSGQKWMI [GALNT9]
protein stability index [1]: 2.2 ± 0.65
protein stability index [2]: 2.85 ± 1

RLDYLNLKGARLTVEQGCQILDSL [FBXO39]
protein stability index [1]: 3.25 ± 0.088
protein stability index [2]: 3.54 ± 0.22

YAKLAAVAVFFIMLIVYVRFWWL [SEC22B]
protein stability index (treatment: DMSO, c terminus: native): 2.52 ± 0.081
protein stability index (treatment: MLN4924 1 uM, 8 h, c terminus: native): 2.63 ± 0.075

GKGSIKELFPTGKQLEPLVAPLAD [VPS39]
protein stability index [1]: 4.08 ± 0.26
protein stability index [2]: 4.08 ± 0.11

QAVSAPGILNRPPAPTATVPAPQP [ZNF207]
protein stability index [1]: 4.76 ± 0.17
protein stability index [2]: 4.91 ± 0.17

MRKTSNSCIMENGHQPGTGPGDGP [SMTNL2]
protein stability index [1]: 4.42 ± 0.064
protein stability index [2]: 4.55 ± 0.11

EFPYRMNHILECEFYLLELMDCCL [CCNC]
protein stability index [1]: 2.68 ± 0.31
protein stability index [2]: 2.84 ± 0.6

GEAMLANFKPRGYSECIVTVGGEE [GAN]
protein stability index [1]: 4.38 ± 0.42
protein stability index [2]: 4.18 ± 0.41

GSLEKALPIIQSNQVSSNSWGIAG [DLC1]
protein stability index [1]: 3.35 ± 0.3
protein stability index [2]: 3.6 ± 0.2

VNPNGQKQQLVDAFLKLAKQRSVC [FAN1]
protein stability index [1]: 3.16 ± 0.27
protein stability index [2]: 2.92 ± 0.32

EVLRRLTSSVSCALDEAAAALTRM [ANKRD17]
protein stability index [1]: 2.3 ± 0.53
protein stability index [2]: 2.1 ± 0.3

KTVDKHSDEYKIRRERNNIAVRKS [CEBPB]
protein stability index [1]: 4.59 ± 0.17
protein stability index [2]: 4.79 ± 0.39

FEDLNKRKDTKEIYTHFTCATDTK [GNAI1]
protein stability index [1]: 4.57 ± 0.16
protein stability index [2]: 4.41 ± 0.42

KHFLEAIENNKYGWFWVCPGGGDI [ZC3H15]
protein stability index [1]: 2.8 ± 0.4
protein stability index [2]: 2.43 ± 0.39

SLRSYLKRRGPQRSVDVVVSSVFL [PHTF1]
protein stability index [1]: 2.48 ± 0.32
protein stability index [2]: 2.09 ± 0.24

LLKFDNSYSLWRSKSVYYRVYYTR [ACBD3]
protein stability index [1]: 2.41 ± 0.55
protein stability index [2]: 2.49 ± 0.54

LKKIKEKDKENKFLCVLMSDWFNF [CLK3]
protein stability index [1]: 2.14 ± 0.36
protein stability index [2]: 2.24 ± 0.24

ELPTRIHEEVYFEPSSSKDSDENS [MIA2]
protein stability index [1]: 5.34 ± 0.14
protein stability index [2]: 4.79 ± 0.58

FPKSEQVYLHFLSVVTEDGPEPKD [ZNF232]
protein stability index [1]: 2.58 ± 0.5
protein stability index [2]: 3.39 ± 0.56

ADWLGLKDEDLDLFPASPTREAHR [FBF1]
protein stability index [1]: 4.77 ± 0.21
protein stability index [2]: 4.61 ± 0.12

RGEGIQAPSFSSYLYFLFCPTLIY [SOAT2]
protein stability index [1]: 3.49 ± 0.45
protein stability index [2]: 3.36 ± 0.69

KDIAHFWELGGGTSLLDLISIPIT [DYNC2LI1]
protein stability index [1]: 2.54 ± 0.54
protein stability index [2]: 2.07 ± 0.24

TLDGRTPLHLAAQRGHYRVARILI [RIPK4]
protein stability index [1]: 1.97 ± 0.44
protein stability index [2]: 1.92 ± 0.36

VEQMTKEERQAAQNECQVLKLLNH [NEK8]
protein stability index [1]: 4.59 ± 0.18
protein stability index [2]: 4.63 ± 0.15

SVAVPPPPPNRMYPPPPPALPSSA [WASL]
protein stability index [1]: 4.5 ± 0.18
protein stability index [2]: 4.53 ± 0.3

ATITSRGSSLSGSLCSLLESQSTS [LURAP1L]
protein stability index [1]: 3.49 ± 0.28
protein stability index [2]: 3.6 ± 0.32

RALQEEERAAAQARRELQAEREAL [ZBED3]
protein stability index [1]: 5.36 ± 0.19
protein stability index [2]: 5.45 ± 0.18
